# Results published in the DeepSol protein solubility set.
# Assay: soluble on expression in E. coli; label from the status in PepcDB or PDB records
row,Sequence,soluble on expression in E. coli
1,MNPVLKSSKLVIFDLDGTLYEGTDHFDYYANHLKQNVPQSQQLDFWRDYTAMKDGHHPVQIGKGYDVKRDYILTIDPMTISVQSVQTWDGSYVPAEEWETLYSDPVSFDFETIIAVGDGWWYPFVTAKHYGVEDCYASYVATKEYMVTDEFELTPLPGLREGLIELKATKEIVLVTNSDREDVQRLLHELHLHDVFNHIITSAKKPTRTTDIFKEVVHQYEVDMSQVVSVGDNFMNEIAQALTLGMQGIYIHPQRASEVAHDHLTVIRSVVELFKNLEHHHHHH,soluble
2,MNQDLSQTFLAITRNSTDLEWLQGALAPLGQVVGADGSLDELLALVDVTFANLVFVGLDREHVVAQAALIEGALEAKPMLAIVALGDGMDNQLVLNAMRAGARDFVAYGSRSSEVAGLVRRLSKRLPAVTPNTQLGGLTVLYGAQGDGDGALLASHLALVVQKSGQQTLLLDLGLPRGDSLALLGLESSFHFGDALRHLRRLDATLIDSAFTSAEAGLRILAYASHDAPLEHTSAAELYMLLSALRQHFQHIVVNLVGQPDSEALRTFVSHCDKLLWCTDQNVLDCRRNLAVLNHWREKGMKLEHARLLVDRYLRTVAPDSETLGKTFGLEVIAVLAYSPEVRLNAKNQGVTLFELAPREALTQSLRTLGERLAKRSQGLPKPKAGWLNRIMGGRLEHHHHHH,not soluble
3,MNQEVRFSRLEPEQRKALLIEATLACLKRHGFQGASVRKICAEAGVSVGLINHHYDGKDALVAEAYLAVTGRVMRLLRGAIDTAPGGARPRLSAFFEASFSAELLDPQLLDAWLAFWGAVGSIEAIGRVHDHSYGEYRALLVGVLRQLAEEGGWADFDAELAAISLSALLDGLWLESGLNPATFTPRQGVQICEAWVDGLEAGAHRRFRRAMEAC,soluble
4,MNQKLKVAIIGSGNIGTDLMIKVLRNAKYLEMGAMVGIDAASDGLARAQRMGVTTTYAGVEGLIKLPEFADIDFVFDATSASAHVQNEALLRQAKPGIRLIDLTPAAIGPYCVPVVNLEEHLGKLNVNMVTCGGQATIPMVAAVSRVAKVHYAEIVASISSKSAGPGTRANIDEFTETTSKAIEVIGGAAKGKAIIIMNPAEPPLIMRDTVYVLSAAADQAAVAASVAEMVQAVQAYVPGYRLKQQVQFDVIPESAPLNIPGLGRFSGLKTSVFLEVEGAAHYLPAYAGNLDIMTSAALATAERMAQSMLNA,soluble
5,MNQLKGIHHVTAITSSAEKNYEFFTHVLGMRLVKKTVNQDDIQTYHLFFADDKGSAGTDMTFFDFPGVPKGVHGTNEISKTSFRVPTDAALAYWVKRFDRLEVEHTGIKEQFGKKTLSFVDFDDQHYQLISDELDKGIESGTPWQNGPVPLEYAITGLGPVFIRIANFSFFKEVLEKVLLFKEIAQEGEFYLFEVNKGGNGASVIVEHNTVLPEAQQGFGTVHHAAFRVEDRAVLEEWIERISSVGLPSSGYVNRHFFESLYARVAPQILFEFATDGPGFMGDESYETLGEKLSLPPFLEPKREEIEKLVRPIDTVRSTKEFIKE,not soluble
6,MNQSCPNKTSFKIAFIQARWHADIVDEARKSFVAELAAKTGGSVEVEIFDVPGAYEIPLHAKTLARTGRYAAIVGAAFVIDGGIYDHDFVATAVINGMMQVQLETEVPVLSVVLTPHHFHESKEHHDFFHAHFKVKGVEAAHAALQIVSERSRIAALV,soluble
7,MNRFIIADATKCIGCRTCEVACAVSHHENQDCAALSPDEFISRIRVIKDHCWTTAVACHQCEDAPCANVCPVDAISREHGHIFVEQTRCIGCKSCMLACPFGAMEVVSSRKKARAIKCDLCWHRETGPACVEACPTKALQCMDVEKVQRHRLRQQPV,not soluble
8,MNRIAKLLKTKYPIVQGPMAGITLGEFASTVSEAGGLGVIASAGLSPEKLKEEIEKVKNRTDKPFAVNIPIYQPGSEKNLETALKADVGIIYTSAGSPEKYTERVKESGAKVIHKVSRLKEGLKAEKAGVDAVVAMGFEAGGIIGRSGVTSFCLIPELADNLSIPVVAAGGIADERGFAAALILGAEGVEIGTRLLATKECPVPESIKQAILKATCDSTMVIESPVVMRALKPELSGDSENPALGGQVSGLIKEILTVEEVIRKIAEGLNKAKF,not soluble
9,MNRIEHYHDWLRDAHAMEKQAESMLESMASRIDNYPELRARIEQHLSETKNQIVQLETILDRNDISRSVIKDSMSKMAALGQSIGGIFPSDEIVKGSIGGYVFEQFEITCYTSLLAAAKNAGDTVSIPIIEAILNEEKQMADWLIQHIPQTTEKFLIRSETDGVEAKK,not soluble
10,MNRIFCALMRADAARFREVVFPCALLQNHPHQFPHVLARLEFFAPPDQRNCLLLPRVLVKRSLAAKEPSKVNFLSVNLRKELHEEAKSSKKTNLK,not soluble
11,MNRLVILARVSTSKQDTERQLSDLNEVCTRNQYDLVNTFTETVSGKYGITERTTLQAIIKMAELKQFDKLLVSEVSRIGRKTSEVLKFIEILTERKISIYIHNYGLETLDRNLNQNPLIGMMINFLSSFSDMERTLTISRVKSGLEEARRRNVILGRPKNSTKDIDIFIDENKRLFELIKKQLTIREIARLTYKSTTTVVKAIKLYKLHPEKFLSAT,not soluble
12,MNRTLYTLLFHLGLPLVALRLWWRARQAPAYAKRIGERFSLSLPEVPPGGIWVHAVSVGESIAAAPMVRALLERHPQLPVTVTCMTPTGSERIRALFGEQVRHCYLPYDLPWAAARFLDRVRPRLAVIMETELWPNHIHACAVRGIPVALANARLSERSARGYARFAGLTRPMLAELSWIAVQTEAEAERFRRLGARPECVSVTGSIKFDLRIDPQLPLAAAALREEWDATARPLWIAASTHAGEDEIVLAAHRRLLETRPDALLILVPRHPERFAGVHELCRREGFATVRRSGGEPVARATQVLLGDTMGELLFLYALADIAFVGGSLVPNGGHNLLEPAALGKPVFAGPHLFNFLDIAAQLRDAGALLEVTDAGELCDGLARLWAQPEVATAMATAGEKVLRNNQGALERLLAGLARLLGRGG,not soluble
13,MNRTPSLHTKEKKGFIDMHTMWKGSISFGLVNIPIKLYAATEDKDIKLRSLHKEDHAPIKYEKVCTNCEKTLSPDEIVKGYEYVKGKYVVLTDEDLKSLKQEHEEKAVEIVDFVQLQEIDPIYFNRSYFVGPGDNGTKAYTLLREALRSTGKIGIANMTIRSKQQLAILRVYENCIVMESIHYPDEVRS,not soluble
14,MNSEIFRIFRKKYSEEIRNPPMNATTLPEALKLMQYIGDAIGTIRDPQELFRTVTDKLRLLFAFDSAVIITIDRERREASVFFEMLRFELPEQLRHQTRSIAGTWLEGHLDDRTVTVASIARDIPSFGADGAPLLWTLHELGMRQIVLSPLRSGGRVIGFLSFVSAEEKLWSDGDKSLLSGVSSSIAIAVSNALAYEELRQRE,not soluble
15,MNSSTANKQKGIQLIPFTVDKVVEQVNEIPPGVQLIHAPQVWEKSAKGKDIVVAVLDTGCDMNHIDLKDRIIGGRNFTKDYEGDPNIYLDNNGHGTHVAGTIAATENGVGVLGVAPLAKMLVLKVLAGDGSGSYEQIIEAIHYAVNWRGPNKERVRVISMSLGGPQDVPELHEAIQNAVKQDVLVVCAAGNNGDCNDNTEELDFPGAYSEVIEVGAVNLERKIACFSNSNQEIDLVAPGDEILSTYPEGKYAVLSGTSMATPHVAGALALLIKQCEREYGRKLSEPEIYAQLIKRTVPLGYERTSEGNGLIDLLKE,not soluble
16,MNSVLSNIEKLDTYILRRNEYVAESKDEPNKLNTSRKLEVTTKKNQSNNKKRPPPINKARKSLPSIFRRAEENKDSAQIITPTGSKIIGSPLYKRSKSDSFFDHAFNFDKNLGKGSFGEVVAATCRSTSKKFAIKKIPFSKLSKDQYREAYGHMNIPCHPNIVRFHQAWIDKQILHIQLEMCDKSLAAYCHGIDWLEDKELWNVFLDILQGLGHLHNNFMLHNDIKPDNIFMTKNKVCKLGDFGLISDMRSEPINNSSNKHYQSEGDGKYCSKEAINGTLSIFSDIFSFGISILEVGTNIHLPSYGTGWEPIRKWEIPEEILEPMSDELRELVKQMMDKAPTRRPTCSELMKNHVVKEKLRIRKQEVEHIPSESQFQPISYLTTESPLGSRESSCSSIDFLDHFENAEKKTPFVSKLNFDLEDDEDEYEVFSPPRTPVKKSRYQQTMPEVSPPRKIQKLFQRKNLFDE,not soluble
17,MNTASLVRSLSRVALRSSQVVRMAAPRHFSQSAKVLSVTPELQQALNREIEAEQQLSSDNLQGAVAPTFAGFQVTNKDAEVRLTKKNGSEDILVVFNVNHSVDMDEGFDDEPSQAVAPVPVAMPPFTVEITKGDQRLCFHLELVPVDDQPDEYDFRVEEFYVAPSAKNGNEDVPSEVYASSGKYIDPDLHDLLFVRYLEERGLDARFCKTLVAYATHYEHSQYVGLLDKIKKFISK,not soluble
18,MNTELQPKLEKSAVNFQAKPRKQKIRKDPNAPFIREKLELPDGHNKLLLHSCCAPCSGEVMEAILASGIEFTIYFYNPNIHPLKEYLIRKEENIRFAKKFGIPFIDADYDRQNWFDRAKGMEWEPERGIRCTMCFDMRFEKAAEYAHKHGFPVFTSCLGISRWKDMNQINGCGHRAAEKYDDVIYWDYNWRKEGGSQRMIEISKRERFYQQEYCGCVYSLRDSNKWREETGRQKIEIGKLYYSAD,not soluble
19,MNTLTTTSVVLPAPRPAINQGIDINNEMVLNHTAIYENCLAQVTQENTVENALMLLDPYGTAPLSAYAGVWSLEPAEIIVTVQDAAKTAMPVEHLYTLTAGANLLPVLGLVADTENRIVFSQADTPLAVYTLITQPLPPVDSAEVVLGFPIINVTQPATDANKMAPGFYFITHFDRYNYALDQNGLVRWYVTQDYPSYNFVRIDNGHFLTTSEAKNTYLDMYEFDMMGRLHTFYNLDNQFHHSIWPWDSNTIVAPSEYTSGRPDDLKTNEDGVSVVDLTTGLETAYYDMAKVLDTTRVSRPSGTAPGEDPTVKDWLHINQSYVNETNQLLIASGRHQSAVFGVDLQTQALRFILSTHEDWDDAYQPYLLTPVDSEGVALYDFSKQEDIDAADRDFWTWGQHNVVEIANNTPGIVEFMVFDNGNYRSRDDSKSLLPPDNYSRIVHFVVNMNEMTVMRPFEYGKELGARGYSSCVSAKAIQQNGNIVVHFADCTFDENGRAISCQPGESDIIDPQAGSEAMGLLILQEIAPTEKTVLFEATMTSGYYKNAETNGEGYRYDITSFRVYKMDLYALEHHHHHH,soluble
20,MNTSELETLIRTILSEQLTTPAQTPVQPQGKGIFQSVSEAIDAAHQAFLRYQQCPLKTRSAIISAMRQELTPLLAPLAEESANETGMGNKEDKFLKNKAALDNTPGVEDLTTTALTGDGGMVLFEYSPFGVIGSVAPSTNPTETIINNSISMLAAGNSIYFSPHPGAKKVSLKLISLIEEIAFRCCGIRNLVVTVAEPTFEATQQMMAHPRIAVLAITGGPGIVAMGMKSGKKVIGAGAGNPPCIVDETADLVKAAEDIINGASFDYNLPCIAEKSLIVVESVAERLVQQMQTFGALLLSPADTDKLRAVCLPEGQANKKLVGKSPSAMLEAAGIAVPAKAPRLLIALVNADDPWVTSEQLMPMLPVVKVSDFDSALALALKVEEGLHHTAIMHSQNVSRLNLAARTLQTSIFVKNGPSYAGIGVGGEGFTTFTIATPTGEGTTSARTFARSRRCVLTNGFSIR,not soluble
21,MNTYAQESKLRLKTKIGADGRCVIEDNFFTPPFKLMAPFYPKDDLAEIMLLAVSPGMMRGDAQDVQLNIGPNCKLRITSQSFEKIHNTEDGFASRDMHIVVGENAFLDFAPFPLIPFENAHFKGNTTISLRSSSQLLYSEIIVAGRVARNELFKFNRLHTKISILQDEKPIYYDNTILDPKTTDLNNMCMFDGYTHYLNLVLVNCPIELSGVRECIEESEGVDGAVSETASSHLCVKALAKGSEPLLHLREKIARLVTQTTTQKVLEHHHHHH,soluble
